Columns and labels:
Assay in all cases: cell_activity
[1] = system: ZFN 56445 (synthetic); conditions: pair with 56444; K562
[2] = system: ZFN 56644 (synthetic); conditions: pair with 56643; Neuro2a
[3] = system: ZFN 56255 (synthetic); conditions: pair with 56254; K562
[4] = system: ZFN 56691 (synthetic); conditions: pair with 56690; Neuro2a; Table 2 site differs slightly from listing
[5] = system: ZFN 56316 (synthetic); conditions: pair with 56317; K562
[6] = system: ZFN 56254 (synthetic); conditions: pair with 56255; K562
[7] = system: ZFN 56317 (synthetic); conditions: pair with 56316; K562
[8] = system: ZFN 56444 (synthetic); conditions: pair with 56445; K562; F6 printed QSGMLAR but cited as SEQ 5 (QSGNLAR)
[9] = system: ZFN 56126 (synthetic); conditions: pair with 56127; K562
[10] = system: ZFN 56643 (synthetic); conditions: pair with 56644; Neuro2a
[11] = system: ZFN 56690 (synthetic); conditions: pair with 56691; Neuro2a
[12] = system: ZFN 56529 (synthetic); conditions: pair with 56526; K562 deltaF508 line
[13] = system: ZFN 56527 (synthetic); conditions: pair with 56526; K562 deltaF508 line
[14] = system: ZFN 56127 (synthetic); conditions: pair with 56126; K562
[15] = system: ZFN 56526 (synthetic); conditions: 16.8% with 56527; K562 deltaF508 line

Q: With “GTGAGAAGGCAGAGAGAAGAATATTTAT (double strand) [CFTR int3 56445 site]” as the sequence, how does the activity [1] read?
A: 32.7 % indels

Q: Which activity [2] does the source give for “TGGAAGCTGAAGTTCTTGGAACATAGCA (double strand) [Cftr int8 56644 site]” here?
A: 49.2 % indels

Q: With “TAGGGAAGGTAGGAGCATAAGGAAGAAT (double strand) [CFTR int8 56255 site]” as the sequence, how does the activity [3] read?
A: 50.1 % indels

Q: For “GTCAACAGGTGTACTGCAGGCATGCTAG (double strand) [Cftr int1 56691 site]”, which activity [4] is on record?
A: 67.2 % indels

Q: How did the activity [5] turn out when “GAAAAGACTATTGAGGGACTGGTGTAGA (double strand) [CFTR int1 56316 site]” was run?
A: 52 % indels

Q: Which activity [6] does the source give for “ATTAAGTCCACGCATACTGAAGTCTTGG (double strand) [CFTR int8 56254 site]” here?
A: 50.1 % indels

Q: “TTTATCCTTTTGCTGACCATGTTTTGTT (double strand) [CFTR int1 56317 site]” was tested. Which activity [7] did it give?
A: 52 % indels

Q: “GGGAAGAAGCAGCTGAAATGTGTAGGTG (double strand) [CFTR int3 56444 site]” was tested. Which activity [8] did it give?
A: 32.7 % indels

Q: Which activity [9] does the source give for “GTACACTGGACTCAGCAGCCTGAATTCC (double strand) [CFTR int7 56126 site]” here?
A: 55.4 % indels

Q: For “GCAATGCTTCATGGGAAAGTACAGTGGC (double strand) [Cftr int8 56643 site]”, which activity [10] is on record?
A: 49.2 % indels

Q: “CCCTGGGTTATGCTGTGATCTTGTGTCA (double strand) [Cftr int1 56690 site]” was tested. Which activity [11] did it give?
A: 67.2 % indels

Q: How did the activity [12] turn out when “ATGATGAATATAGATACAGAAGCGTCAT (double strand) [CFTR dF508 56529/56527 site]” was run?
A: 19.6 % indels

Q: And the activity [13]?
A: 16.8 % indels

Q: With “ATGGAAACTGAGCTGCAGGTGTGTGATT (double strand) [CFTR int7 56127 site]” as the sequence, how does the activity [14] read?
A: 55.4 % indels

Q: How did the activity [15] turn out when “GGAAACACCAATGATATTTTCTTTAATG (double strand) [CFTR dF508 56526 site]” was run?
A: 19.6 % indels

Source: US20200079826
